We go through 10 molecules from patent publication US6015560, “Antibody recognizing endothelial cell ligand for leukocyte CR3” (The Rockfeller University, dated 2000).

For assay [1], the target named is T1, integrin complement receptor 3 (CR3) on human leukocytes (human, UniProt P11215). The assay can be described thus: macrophages spread on peptide-coated wells; residual CD11b/CD18 detected with C3bi-coated erythrocytes.
Assay [2] addresses T1, integrin complement receptor 3 (CR3) on …. Put plainly: cell-based or functional assay.

For GTLLLRNDALTENGTVTISA [FHA peptide Cd], the binding result in assay [1] was “no binding (tested: wells coated with 0.5 mM peptide)”.

For RGDPHQGVLAQGDIIMDAKGGTLLLRNDALTENGTVTISADSAVL [FHA peptide C], in assay [2], the “inhibition of adherence of human neutrophils to cultured endothelial cells” value (“inhibition” below) stood at 62%.

For the molecule RPQITDAVTGEARKDESVVSDAALVADGGPIVVEAGELVSHAGGI [FHA peptide F], the “inhibition” value in assay [2] is below 15%.

AADPHQGVLAQGDIIMDAKG [FHA peptide Cc]: the binding result in assay [1] was “no binding (tested: wells coated with 0.5 mM peptide)”.

B1: FHA peptide G (peptide)
peptide: IVVEAGELVSHAGGIGNGRNKENGASVTVRTTGNLVNKGYISAGKQGVLEVGGAL
In the case of B1, the “inhibition” value in assay [2] was below 15%.

In the case of IGALKAGAVEAASPRRAARRALRQDFFTPGSVVVRAQGNYTVGRGD [FHA peptide A], the “inhibition” value in assay [2] was below 15%.

In the case of AKKLFLNGTLRAVNDNNETMSGRQIDVVDGRPQITDAVTGEARKD [FHA peptide E], the “inhibition” value in assay [2] was below 15%.

Regarding RADPHQGVLAQGDIIMDAKG [FHA peptide Cb], the binding result in assay [1] is reported as “no binding (tested: wells coated with 0.5 mM peptide)”.

In the case of RQDFFTPGSVVVRAQGNVTVGRGDPHQGVLAQGDIIMDAKGGTLL [FHA peptide B], the “inhibition” value in assay [2] was found to be 29%.

For the molecule LEHSTIESKISQSVLAAKGDKGKPAVSVKVAKKLFLNGTLRAVND [FHA peptide D], the “inhibition” value in assay [2] is below 15%.
